Here are results for 2 molecules from patent US9605038B2, “Fusion peptide comprising dhFas-1 domain and MMP substrate and use thereof for preventing and treating rheumatoid arthritis” (Kyungpook National University Industry-Academic Cooperation …, priority 2010, dated 2017).

Data set [1] deals with mouse fibroblast (NIH3T3). As to the kind of experiment: βig-h3-mediated cell adhesion test, NIH3T3. In kind it is cell-based. As to conditions: for βig-h3-mediated cell adhesion: NIH3T3, βig-h3 5 ug/ml coat. The procedure: (§1) Human βig-h3 was introduced into a 96-well plate at a concentration of 5 ug/ml, and coated for 14 hours at 4° C. In DMEM+0.5% BSA (Bovine Serum Albumin) culture medium, human fibroblast (NIH3T3) was introduced, and hsdhFas-1 peptide at concentrations was injected thereto, followed by mixing. The resultant mixture was cultured at 37° C. for 30 minutes, and plated on a coated well. It was cultured for 2 hours, and washed with PBS (phosphate buffered saline) so as to remove unattached cells, and then added with a substrate (4-Nitrophenyl N-acetyl-β-D-glucosaminide, Sigma, U.S.) to be activated by β-N-acetylglucosaminidase within the cell, followed by culturing at 37° C. for 1 hour. Then, a glycine EDTA solution (0.5M EDTA, 50 mM glycine, pH 10.4) was added thereto, and the coloring extent according to the number of attached cells was measured by absorbance.
Also, a structurally modified peptide of a fas-1 domain of mouse βig-h3 was synthesized as a recombinant peptide (hereinafter, referred to as ‘mdhFas-1peptide’, see FIG. 2), and a mouse cell line, that is, NIH3T3 cell line, was used to test the inhibiting effect by mdhFas-1 peptide on adhesion and migration of a Synovial membrane cell in the same manner as that in the test using human βig-h3.
as §1, with “βig-h3” for “Human βig-h3”, “mouse” for “human”, “MFK23, MFK24, MFK25 or MFK27” for “hsdhFas-1 peptide”

Another data set addresses T1, MMP1 (Homo sapiens, UniProt P03956).
T1 sequence (P03956 100-469): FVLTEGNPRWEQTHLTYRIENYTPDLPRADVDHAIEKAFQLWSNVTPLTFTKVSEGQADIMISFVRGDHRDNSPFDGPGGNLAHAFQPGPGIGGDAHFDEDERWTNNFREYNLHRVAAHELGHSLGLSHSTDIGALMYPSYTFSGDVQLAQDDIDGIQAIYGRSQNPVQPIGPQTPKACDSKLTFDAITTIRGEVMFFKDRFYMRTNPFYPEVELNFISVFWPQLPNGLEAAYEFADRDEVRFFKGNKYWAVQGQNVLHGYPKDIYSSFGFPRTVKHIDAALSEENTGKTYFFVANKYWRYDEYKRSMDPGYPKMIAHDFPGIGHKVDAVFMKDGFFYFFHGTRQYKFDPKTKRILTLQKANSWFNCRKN
The data set can be described thus: Enzymatic digestion test, MMP1. Format: biochemical. As to conditions: 3 ug peptide, MMP1 5, 10, 50 ng, 37° C. 4 hours. The procedure: (§2) 3 ug of synthesized mdhFas-1-MMPsubstrate structure modified protein, together with MMP1 (5 ng, 10 ng and 50 ng), MMP2 (100 ng, 200 ng and 800 ng), MMP3 (10 ng, 50 ng and 100 ng), cathepsin D (5 ng, 10 ng and 50 ng), cathepsin L (100 ng, 200 ng and 800 ng), and cathepsin K (10 ng, 50 ng and 100 ng), was mixed with enzyme buffer (150 mM NaCl, 5 mM. CaCl2, 20 mM Tris-HCl pH7.5), and reacted at 37° C. for 4 hours. The resultant product was subjected to electrophoresis through 15% polyacrylamide gel, transferred to a Nitrocellulose Membrane (Schleicher & Schuell), blocked at room temperature for 1 hour with TBST solution containing 3% BSA (20 mmole/L Tris-HCl, 137 mmole//l NaCl, 0.1% Tween-20), washed TBST solution three times (each for 10 minutes), and reacted with primary antibody (anti-Histidine or anti-Bigh3) for 1 hour. The resultant product was washed with TBST solution three times (each for 10 minutes), reacted with a secondary antibody conjugated to horseradish peroxidase (HRP) for 1 hour, washed TBST solution three times (each for 10 minutes), and visualized by ECL (Amersham Biosciences, UK) so as to detect the change in the amount of mdhFas-1-MMPsubstrate-RGD structural peptide.

The target of another data set is cathepsin L (Homo sapiens, UniProt P07711). As to the kind of experiment: Enzymatic digestion test, cathepsin L. Format: biochemical. Conditions: 3 ug peptide, cathepsin L 100, 200, 800 ng, 37° C. 4 hours. The procedure:
as §2

For another data set, the target named is cathepsin D (Homo sapiens, UniProt P07339). As to the kind of experiment: Enzymatic digestion test, cathepsin D. In kind it is biochemical. Conditions: 3 ug peptide, cathepsin D 5, 10, 50 ng, 37° C. 4 hours. The procedure: as §2
Data set [2] is described as follows: Toxicity test in CIA mouse (weight, serologic test, blood test). As to conditions: for body weight change compared to control group: 22nd day vs 48th day; for overall toxicity: serologic test, blood test, weight; for ALT / AST / BUN / Crea / PLT / RBC / WBC: CIA model, 4 weeks.
Procedure: On the 48th day, a serologic test and a blood test were carried out.

“Also recorded” adds a separate entry of the source.

Chain of cathepsin D (P07339 65-412, species assumed): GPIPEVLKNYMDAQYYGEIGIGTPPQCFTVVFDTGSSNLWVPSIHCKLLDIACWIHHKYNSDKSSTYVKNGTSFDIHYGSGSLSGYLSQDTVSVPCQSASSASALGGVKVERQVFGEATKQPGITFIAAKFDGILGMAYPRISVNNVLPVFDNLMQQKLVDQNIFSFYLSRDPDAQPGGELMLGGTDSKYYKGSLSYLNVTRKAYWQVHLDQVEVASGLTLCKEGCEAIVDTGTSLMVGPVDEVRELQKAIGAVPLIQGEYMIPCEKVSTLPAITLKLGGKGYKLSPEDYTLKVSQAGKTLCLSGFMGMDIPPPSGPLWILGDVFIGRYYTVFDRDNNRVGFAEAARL
Chain of cathepsin L (P07711 114-333, species assumed): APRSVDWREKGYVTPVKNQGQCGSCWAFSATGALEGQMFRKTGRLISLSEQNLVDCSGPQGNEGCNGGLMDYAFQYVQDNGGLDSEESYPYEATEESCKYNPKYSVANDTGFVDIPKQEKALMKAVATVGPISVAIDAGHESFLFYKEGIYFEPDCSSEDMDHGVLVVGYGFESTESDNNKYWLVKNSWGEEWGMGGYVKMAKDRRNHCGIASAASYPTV

B1: MFK23: fusion peptide having sequential links of mdhFas-1, MMP2 substrate GPLGVRG (SEQ ID NO: 5), and QERGDSLA (SEQ ID NO: 10) (protein)
chain: QAMPPEELNKLLANAKELTNILKYHIGDEILVSGGIGALVRLKSLQGDKLEVSSKNNVVSVNKEPVAETDIMEFGPLGVRGVDGQERGDSLAGLE
modifications: MFK23
Take B1: the “concentration at which treatment inhibited the adhesion” value in data set [1] (NIH3T3, FIG. 14) is at least 5 µM. In addition, the βig-h3-mediated cell adhesion entry in data set [1] was “even at a very low concentration can inhibit the cell adhesion; also recorded: concentration-dependently inhibited”. In addition, the “cleavage through treatment with MMP-1” value in the data set with MMP1 is “not cleaved”. Further, the “cleavage through treatment with cathepsin L” value in the data set with cathepsin L was “not cleaved”. In addition, the “cleavage through treatment with cathepsin D” value with cathepsin D is listed as “not cleaved”. Besides, in data set [2] (CIA mouse), the “death during the therapy period” value is listed as “No mouse died”; the “body weight change compared to control group” value is on record as “maintained similarly to that of the control group”; the overall toxicity result was “a low toxicity and a low dangerousness”.

B2: MFK24: fusion peptide having sequential links of mdhFas-1, MMP1 substrate GPQGIAG (SEQ ID NO: 6), and QERGDSLA (SEQ ID NO: 10) (protein)
chain: QAMPPEELNKLLANAKELTNILKYHIGDEILVSGGIGALVRLKSLQGDKLEVSSKNNVVSVNKEPVAETDIMEFGPQGIAGVDGQERGDSLAGLE
modifications: MFK24
For B2, the adhesion inhibiting effect in data set [1] (NIH3T3, concentration of 0.5uM, FIG. 15C) is recorded as at least 80%. In addition, the βig-h3-mediated cell adhesion entry in data set [1] was “even at a very low concentration can inhibit the cell adhesion; also recorded: concentration-dependently inhibited”. Also, the “cleavage through treatment with MMP-1” value with MMP1 is given as “concentration-dependently cleaved”. Moreover, the “cleavage through treatment with cathepsin L” value with cathepsin L is “not cleaved”. Further, in the data set with cathepsin D, the “cleavage through treatment with cathepsin D” value is on record as “not cleaved”. In addition, in data set [2] (0.1 mg/kg), the ALT is reported as 37.8 ± 7.1 U/L, the AST worked out at 224.3 ± 13 U/L, the BUN came out at 19.0 ± 3.3 mg/dL and the Crea amounted to 0.54 ± 0.10 mg/dL. Further, in data set [2] (0.1 mg/kg), the PLT is 1280.2 ± 284 ×10^3/ul, the RBC is given as 12.3 ± 0.7 ×10^6/ul and the WBC is 5.0 ± 1.2 ×10^3/ul. In data set [2] (1 mg/kg), this molecule displayed an ALT of 40.6 ± 7.2 U/L, an AST of 270.5 ± 17 U/L, a BUN of 21.2 ± 3.4 mg/dL and a Crea of 0.54 ± 0.14 mg/dL. For the same molecule, in data set [2] (1 mg/kg), the PLT is on record as 1155.3 ± 184 ×10^3/ul, the RBC is 10.9 ± 1.7 ×10^6/ul and the WBC was 3.7 ± 0.5 ×10^3/ul. For the same molecule, in data set [2] (10 mg/kg), the ALT worked out at 43.6 ± 14.2 U/L, the AST is given as 222.0 ± 25 U/L, the BUN is listed as 20.4 ± 4.4 mg/dL and the Crea stood at 0.54 ± 0.11 mg/dL. Besides, in data set [2] (10 mg/kg), the PLT is 1050.1 ± 359 ×10^3/ul, the RBC was 11.4 ± 1.5 ×10^6/ul and the WBC is reported as 5.0 ± 1.8 ×10^3/ul. In data set [2] (30 mg/kg), this molecule had an ALT of 28.9 ± 8.2 U/L, an AST of 286.6 ± 48 U/L, a BUN of 12.4 ± 4.8 mg/dL and a Crea of 0.33 ± 0.02 mg/dL. Further, in data set [2] (30 mg/kg), the PLT is 674.7 ± 111 ×10^3/ul, the RBC is listed as 12.4 ± 0.1 ×10^6/ul and the WBC is listed as 6.1 ± 1.1 ×10^3/ul. For the same molecule, in data set [2] (CIA mouse), the “death during the therapy period” value is “No mouse died”; the “body weight change compared to control group” value is recorded as “maintained similarly to that of the control group”; the overall toxicity entry is “a low toxicity and a low dangerousness”. Moreover, in data set [2] (CIA mouse, 48th day), the “bilirubin and creatine compared to control group” value is recorded as “no significant difference”; the “erythrocytes, leukocytes, platelets and liver function values (AST and ALT) compared to control” value is listed as “did not show abnormalities”.
